Data set [1] concerns the target T1, Pot1DBD (Schizosaccharomyces pombe, UniProt O13988 2-339).
T1 sequence: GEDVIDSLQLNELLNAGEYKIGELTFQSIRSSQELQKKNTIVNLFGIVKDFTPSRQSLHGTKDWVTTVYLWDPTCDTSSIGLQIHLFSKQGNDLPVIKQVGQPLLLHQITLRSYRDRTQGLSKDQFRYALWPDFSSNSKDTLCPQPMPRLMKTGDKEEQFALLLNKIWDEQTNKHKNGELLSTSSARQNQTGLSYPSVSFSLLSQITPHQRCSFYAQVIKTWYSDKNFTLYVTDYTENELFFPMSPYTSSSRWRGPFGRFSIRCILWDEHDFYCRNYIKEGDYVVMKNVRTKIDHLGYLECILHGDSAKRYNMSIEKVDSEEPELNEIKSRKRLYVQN
As to the kind of experiment: ITC; Kd only in figure; ITC: 25 mM Tris-HCl pH 8.0, 150 mM NaCl, 20 C; gel filtration (complex purification): 25 mM Tris-HCl pH 8.0, 150 mM NaCl, 5 mM DTT. The note with it: protein: recombinant; tags: His6-SUMO (N-terminal, removed with ULP1); single strand. A general note: In ITC the heat of successive injections is recorded.

In data set [2] the target is T2, Ccq1 (residues 123-439), without the deletion (S. pombe, UniProt Q10432 123-439).
T2 construct: The methods describe only the deleted form; this undeleted form gave crystals that diffracted to about 4.0 Å; also called N-terminal region of Ccq1
T2 sequence (looked up): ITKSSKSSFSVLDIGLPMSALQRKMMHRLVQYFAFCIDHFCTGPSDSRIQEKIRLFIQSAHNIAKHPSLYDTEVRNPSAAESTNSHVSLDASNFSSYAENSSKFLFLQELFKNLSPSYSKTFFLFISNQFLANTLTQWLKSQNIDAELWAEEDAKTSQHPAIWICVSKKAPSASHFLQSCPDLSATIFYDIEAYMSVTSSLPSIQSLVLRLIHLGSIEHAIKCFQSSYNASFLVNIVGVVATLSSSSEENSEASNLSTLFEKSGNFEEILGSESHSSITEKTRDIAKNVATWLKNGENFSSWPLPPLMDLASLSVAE
As to the kind of experiment: SEC; co-expressed and co-purified complexes on gel filtration (calibrated for Tpz1CBM-Ccq1TAD); 25 mM Tris-HCl pH 8.0, 150 mM NaCl, 5 mM dithiothreitol. The following applies: both partners purified.

The target in data set [3] is T3, Ccq1TAD (Ccq1 123-439 with deletion of residues 199-215), purified (S. pombe, UniProt Q10432 123-439, deletion of residues 199–215).
T3 construct: Two copies stand in the 2:2 complex with Tpz1CBM; not shown: His6, N-terminal, cleaved; SUMO, N-terminal, cleaved
T3 sequence (looked up): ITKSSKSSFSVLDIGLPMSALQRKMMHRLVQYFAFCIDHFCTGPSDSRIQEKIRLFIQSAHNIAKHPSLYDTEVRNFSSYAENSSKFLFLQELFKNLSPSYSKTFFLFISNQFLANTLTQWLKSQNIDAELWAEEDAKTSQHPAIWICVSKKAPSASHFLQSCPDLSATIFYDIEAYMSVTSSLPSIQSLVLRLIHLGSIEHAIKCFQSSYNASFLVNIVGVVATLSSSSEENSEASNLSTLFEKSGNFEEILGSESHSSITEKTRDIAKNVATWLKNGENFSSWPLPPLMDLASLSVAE
As to the kind of experiment: crystal structure; Tpz1CBM-Ccq1TAD complex, SAD, 2.4 Å; sitting drop at 4°C, 15% PEG4000, 200 mM potassium chloride, 50 mM magnesium chloride, 50 mM Tris-HCl pH 7.8. The note with it: both partners purified.

Data set [4] addresses T1, Pot1DBD. The data set can be described thus: gel filtration; 1:1 stoichiometry; ITC: 25 mM Tris-HCl pH 8.0, 150 mM NaCl, 20 C; gel filtration (complex purification): 25 mM Tris-HCl pH 8.0, 150 mM NaCl, 5 mM DTT. The note with it: protein: recombinant; tags: His6-SUMO (N-terminal, removed with ULP1); single strand. (In general: Size exclusion chromatography separates by hydrodynamic size, large species first.)

Data set [5] deals with T4, Pot1 full length;Tpz1PIM (Schizosaccharomyces …, UniProt O13988;O14246 1-555;164-240, |).
T4 sequence 1: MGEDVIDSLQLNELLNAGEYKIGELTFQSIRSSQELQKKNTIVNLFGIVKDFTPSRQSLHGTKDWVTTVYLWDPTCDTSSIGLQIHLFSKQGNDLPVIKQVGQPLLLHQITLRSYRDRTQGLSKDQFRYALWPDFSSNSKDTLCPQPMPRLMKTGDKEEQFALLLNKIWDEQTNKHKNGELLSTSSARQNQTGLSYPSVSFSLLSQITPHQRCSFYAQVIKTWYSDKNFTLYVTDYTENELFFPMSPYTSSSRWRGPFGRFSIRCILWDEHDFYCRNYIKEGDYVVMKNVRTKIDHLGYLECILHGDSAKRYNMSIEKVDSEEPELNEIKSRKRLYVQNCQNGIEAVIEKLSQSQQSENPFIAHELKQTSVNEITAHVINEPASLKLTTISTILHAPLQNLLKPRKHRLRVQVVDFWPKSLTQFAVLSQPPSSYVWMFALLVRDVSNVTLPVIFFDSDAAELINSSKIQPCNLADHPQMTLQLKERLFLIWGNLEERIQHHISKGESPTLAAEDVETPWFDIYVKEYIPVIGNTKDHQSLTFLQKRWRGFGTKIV
T4 sequence 2: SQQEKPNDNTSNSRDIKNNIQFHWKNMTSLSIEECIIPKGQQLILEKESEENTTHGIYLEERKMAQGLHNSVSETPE
As to the kind of experiment: complex reconstitution; stable complex after mixing with Tel18; ITC: 25 mM Tris-HCl pH 8.0, 150 mM NaCl, 20 C; gel filtration (complex purification): 25 mM Tris-HCl pH 8.0, 150 mM NaCl, 5 mM DTT. The following applies: protein: recombinant;recombinant, tags: His6-SUMO/GST system, co-expressed with Tpz1PIM;His6-SUMO/GST system, copies: 1;1, single strand.

With GGTTACGGTTACGGT (ssDNA) [Tel15], in data set [1], the binding result was “binds”. What is called stoichiometry N is the number of molecules, sites or subunits per partner or assembly. For EQIELEYKRKPIPDYDFMKGLETTLQELYVEHQSKKRRLELFQLTN (domain or fragment, S. pombe, UniProt O14246 425-470, looked up, not shown: GST, N-terminal, cleaved) [Tpz1CBM (Tpz1 425-470), purified], the binding result in data set [2] was “binds”. Further, in data set [3], the “stoichiometry N” value is 1 Tpz1CBM per Ccq1TAD (printed as 2:2).

For GGTTACAGGGTTACGGT (ssDNA) [Tel17], the binding result in data set [4] is given as “binds”. Turning to GGTTACAGGGGTTACGGT (ssDNA) [Tel18], the binding result in data set [5] and in data set [1] was “binds” throughout.

The values above are taken from article PMC9333443, “Structural insights into Pot1-ssDNA, Pot1-Tpz1 and Tpz1-Ccq1 Interactions within fission yeast shelterin complex” (PLoS Genetics, 2022).
